Assays:
[1] = target: T1, AbdA (Hox);Exd/Hth-HM (Drosophila melanogaster?;Drosophila …, UniProt P29555;P40427;O46339 261-590;1-376;127-211, |); assay: EMSA; intact in text; slightly reduced per legend; EMSA, 20 ul, 30 min, room temperature; 5X buffer as printed: 20% glycerol, 1 mg/ml BSA, 2.5 mM EDTA, '50mM 1M tris' pH 7.5, 50 mM KCl, 5 mM MgCl2, 2.5 mM DTT, 90 ug/ml poly(dI-dC); proteins 100-200 ng; details: protein: recombinant;recombinant; tags: 6xHis;6xHis; copies: 1;1;1
Target sequence in this assay (P29555 261-590, one chain of several): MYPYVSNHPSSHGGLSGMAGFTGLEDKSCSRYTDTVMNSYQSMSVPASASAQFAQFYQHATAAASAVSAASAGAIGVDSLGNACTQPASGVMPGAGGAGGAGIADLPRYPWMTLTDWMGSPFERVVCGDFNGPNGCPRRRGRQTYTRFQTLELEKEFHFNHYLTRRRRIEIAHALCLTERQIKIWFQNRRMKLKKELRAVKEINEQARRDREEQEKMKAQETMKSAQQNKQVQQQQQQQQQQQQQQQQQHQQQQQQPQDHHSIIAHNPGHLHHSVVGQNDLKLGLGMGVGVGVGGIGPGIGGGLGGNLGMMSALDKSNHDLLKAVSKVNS

[2] = target: T2, AbdA (Hox);Exd/Hth-HM;Grh (Drosophila melanogaster?;Drosophila …, UniProt P29555;P40427;O46339;P13002 261-590;1-376;127-211;551-1333, ||); assay: EMSA; EMSA, 20 ul, 30 min, room temperature; 5X buffer as printed: 20% glycerol, 1 mg/ml BSA, 2.5 mM EDTA, '50mM 1M tris' pH 7.5, 50 mM KCl, 5 mM MgCl2, 2.5 mM DTT, 90 ug/ml poly(dI-dC); proteins 100-200 ng; details: protein: recombinant;recombinant;recombinant; tags: 6xHis;6xHis;6xHis; copies: 1;1;1;2
Target sequence in this assay (P29555 261-590, chain 1 of 4, one chain of several): as the sequence (P29555 261-590, one chain of several) above
Target sequence in this assay (P13002 551-1333, chain 4 of 4, one chain of several): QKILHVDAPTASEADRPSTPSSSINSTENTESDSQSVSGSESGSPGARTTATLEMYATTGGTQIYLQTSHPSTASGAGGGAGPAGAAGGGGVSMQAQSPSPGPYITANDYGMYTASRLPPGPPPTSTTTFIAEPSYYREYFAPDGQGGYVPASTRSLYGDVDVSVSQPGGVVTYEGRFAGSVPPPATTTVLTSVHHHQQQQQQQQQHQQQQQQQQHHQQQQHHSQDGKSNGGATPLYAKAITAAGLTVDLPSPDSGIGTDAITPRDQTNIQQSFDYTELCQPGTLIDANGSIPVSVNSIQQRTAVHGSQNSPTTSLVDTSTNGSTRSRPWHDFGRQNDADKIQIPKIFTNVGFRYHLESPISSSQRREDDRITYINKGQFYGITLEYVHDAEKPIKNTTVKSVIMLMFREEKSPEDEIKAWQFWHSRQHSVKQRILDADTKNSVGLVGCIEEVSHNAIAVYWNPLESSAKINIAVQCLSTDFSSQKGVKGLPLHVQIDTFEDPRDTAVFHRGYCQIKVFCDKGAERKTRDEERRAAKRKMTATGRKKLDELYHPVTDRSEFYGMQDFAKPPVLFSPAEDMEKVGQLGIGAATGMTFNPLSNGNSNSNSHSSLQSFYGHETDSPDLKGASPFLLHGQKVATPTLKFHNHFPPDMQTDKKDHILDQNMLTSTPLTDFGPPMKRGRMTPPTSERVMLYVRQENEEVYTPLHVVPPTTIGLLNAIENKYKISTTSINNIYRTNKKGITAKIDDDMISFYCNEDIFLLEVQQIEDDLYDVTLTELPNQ

[3] = target: AbdA (Hox);Grh (Drosophila melanogaster?;Drosophila …, UniProt P29555;P13002 261-590;551-1333, |); assay: as above; details: protein: recombinant;recombinant; tags: 6xHis;6xHis; copies: 1;2
[4] = target: T1, AbdA (Hox);Exd/Hth-HM; assay: as above; details: protein: recombinant;recombinant; tags: 6xHis;6xHis; copies: 1;1;1
[5] = target: T3, Grh (UniProt P13002 551-1333); assay: as above; details: protein: recombinant; tags: 6xHis; chain copies: 2
[6] = target: T4, AbdA (Hox) (UniProt P29555 261-590); assay: as above; details: protein: recombinant; tags: 6xHis
[7] = target: T2, AbdA (Hox);Exd/Hth-HM;Grh; assay: EMSA; completely abolished in text; largely per legend; EMSA, 20 ul, 30 min, room temperature; 5X buffer as printed: 20% glycerol, 1 mg/ml BSA, 2.5 mM EDTA, '50mM 1M tris' pH 7.5, 50 mM KCl, 5 mM MgCl2, 2.5 mM DTT, 90 ug/ml poly(dI-dC); proteins 100-200 ng; details: protein: recombinant;recombinant;recombinant; tags: 6xHis;6xHis;6xHis; copies: 1;1;1;2
Target sequence in this assay (P29555 261-590, chain 1 of 2): as the sequence (P29555 261-590, one chain of several) above
Target sequence in this assay (P13002 551-1333, chain 4 of 2): as the sequence (P13002 551-1333, chain 4 of 4, one chain of several) above

[8] = target: T3, Grh; assay: EMSA; no significant decrease; EMSA, 20 ul, 30 min, room temperature; 5X buffer as printed: 20% glycerol, 1 mg/ml BSA, 2.5 mM EDTA, '50mM 1M tris' pH 7.5, 50 mM KCl, 5 mM MgCl2, 2.5 mM DTT, 90 ug/ml poly(dI-dC); proteins 100-200 ng; details: protein: recombinant; tags: 6xHis; chain copies: 2
[9] = target: T2, AbdA (Hox);Exd/Hth-HM;Grh; assay: EMSA; intact; slightly reduced intensity per legend; EMSA, 20 ul, 30 min, room temperature; 5X buffer as printed: 20% glycerol, 1 mg/ml BSA, 2.5 mM EDTA, '50mM 1M tris' pH 7.5, 50 mM KCl, 5 mM MgCl2, 2.5 mM DTT, 90 ug/ml poly(dI-dC); proteins 100-200 ng; details: protein: recombinant;recombinant;recombinant; tags: 6xHis;6xHis;6xHis; copies: 1;1;1;2
Target sequence in this assay (P29555 261-590, chain 1 of 2): as the sequence (P29555 261-590, one chain of several) above
Target sequence in this assay (P13002 551-1333, chain 4 of 2): as the sequence (P13002 551-1333, chain 4 of 4, one chain of several) above

[10] = target: T4, AbdA (Hox); assay: EMSA; 100 and 200 ng; EMSA, 20 ul, 30 min, room temperature; 5X buffer as printed: 20% glycerol, 1 mg/ml BSA, 2.5 mM EDTA, '50mM 1M tris' pH 7.5, 50 mM KCl, 5 mM MgCl2, 2.5 mM DTT, 90 ug/ml poly(dI-dC); proteins 100-200 ng; details: protein: recombinant; tags: 6xHis
[11] = target: T5, Exd/Hth-HM (UniProt P40427;O46339 1-376;127-211); assay: EMSA; 200 ng; another sentence claims strong binding of each protein; EMSA, 20 ul, 30 min, room temperature; 5X buffer as printed: 20% glycerol, 1 mg/ml BSA, 2.5 mM EDTA, '50mM 1M tris' pH 7.5, 50 mM KCl, 5 mM MgCl2, 2.5 mM DTT, 90 ug/ml poly(dI-dC); proteins 100-200 ng; details: protein: recombinant; tags: 6xHis; copies: 1;1
T5 sequence 1: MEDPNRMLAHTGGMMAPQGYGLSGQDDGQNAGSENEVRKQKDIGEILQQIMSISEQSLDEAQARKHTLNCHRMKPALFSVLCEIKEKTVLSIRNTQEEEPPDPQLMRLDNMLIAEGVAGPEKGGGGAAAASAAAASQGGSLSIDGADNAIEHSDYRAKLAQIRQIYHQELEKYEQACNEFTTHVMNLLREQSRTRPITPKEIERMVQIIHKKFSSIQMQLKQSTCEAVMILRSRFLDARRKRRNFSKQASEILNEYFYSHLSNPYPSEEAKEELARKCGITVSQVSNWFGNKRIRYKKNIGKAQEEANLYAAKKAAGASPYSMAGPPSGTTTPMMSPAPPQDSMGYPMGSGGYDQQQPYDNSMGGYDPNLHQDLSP
T5 sequence 2: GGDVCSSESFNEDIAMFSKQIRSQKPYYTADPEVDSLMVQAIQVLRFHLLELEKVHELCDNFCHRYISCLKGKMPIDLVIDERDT

[12] = target: T5, Exd/Hth-HM; assay: EMSA; EMSA, 20 ul, 30 min, room temperature; 5X buffer as printed: 20% glycerol, 1 mg/ml BSA, 2.5 mM EDTA, '50mM 1M tris' pH 7.5, 50 mM KCl, 5 mM MgCl2, 2.5 mM DTT, 90 ug/ml poly(dI-dC); proteins 100-200 ng; details: protein: recombinant; tags: 6xHis; copies: 1;1

T3 sequence (P13002 551-1333): as the sequence (P13002 551-1333, chain 4 of 4, one chain of several) above
Chain of AbdA (Hox);Grh (P29555 261-590, chain 1 of 2): as the sequence (P29555 261-590, one chain of several) above
Chain of AbdA (Hox);Grh (P13002 551-1333, chain 2 of 2): as the sequence (P13002 551-1333, chain 4 of 4, one chain of several) above
T4 sequence (P29555 261-590): as the sequence (P29555 261-590, one chain of several) above

B1: motif-30 Hox1 mutant (dsDNA)
DNA 1: GAAACAGGAGAACCATAACTAATCC
DNA 2: GGATTAGTTATGGTTCTCCTGTTTC
binding result [1]: binds

B2: motif-30 Exd mutant (dsDNA)
DNA 1: GAAACAGGATAACCATAACTGCTCC
DNA 2: GGAGCAGTTATGGTTATCCTGTTTC
binding result [2]: no binding | binding result [3]: binds | binding result [4]: no binding | binding result [5]: binds

B3: motif-30 Hox2 mutant (dsDNA)
DNA 1: GAAACAGGATAACCAGGACTAATCC
DNA 2: GGATTAGTCCTGGTTATCCTGTTTC
binding result [6]: no binding | binding result [3]: no binding | binding result [4]: no binding | binding result [5]: binds | binding result [7]: no binding

B4: motif-31 (dsDNA)
DNA 1: ACACAATTTTCTAAGATCCACTGGAATCGGTATGCCGATAGTT
DNA 2: AACTATCGGCATACCGATTCCAGTGGATCTTAGAAAATTGTGT
binding result [6]: binds | binding result [2]: no binding | binding result [4]: binds | binding result [5]: binds

B5: motif-30 Grh2 mutant (dsDNA)
DNA 1: GAAACAGGATAACGATAACTAATCC
DNA 2: GGATTAGTTATCGTTATCCTGTTTC
binding result [8]: binds | binding result [9]: binds

B6: motif-23 (dsDNA)
DNA 1: CTATTATCACTATTGCTTTGCTTCCTCAAAACCTTCATTCGA
DNA 2: TCGAATGAAGGTTTTGAGGAAGCAAAGCAATAGTGATAATAG
binding result [4]: binds | binding result [5]: binds

B7: motif-28 (dsDNA)
DNA 1: AAGCCGAGCCTGAATCAGGTACTCAAATTGTCGC
DNA 2: GCGACAATTTGAGTACCTGATTCAGGCTCGGCTT
binding result [2]: no binding | binding result [3]: binds | binding result [4]: binds | binding result [5]: binds

B8: motif-29 (Hox-Exd consensus) (dsDNA)
DNA 1: CTCAAGCGCGTGATGAATGTAATCTTCG
DNA 2: CGAAGATTACATTCATCACGCGCTTGAG
binding result [4]: binds | binding result [5]: no binding

B9: motif-27 (dsDNA)
DNA 1: TATATGTGGAACCACCTTGAAAGTCTACTGCCTGATTAGT
DNA 2: ACTAATCAGGCAGTAGACTTTCAAGGTGGTTCCACATATA
binding result [2]: binds | binding result [4]: binds | binding result [5]: binds

B10: motif-25 (dsDNA)
DNA 1: CGGGATATCACCAAACCATAGAAAATTTGCGGTACA
DNA 2: TGTACCGCAAATTTTCTATGGTTTGGTGATATCCCG
binding result [2]: no binding | binding result [4]: binds | binding result [5]: binds

B11: motif-30 WT (dsDNA)
DNA 1: GAAACAGGATAACCATAACTAATCC
DNA 2: GGATTAGTTATGGTTATCCTGTTTC
binding result [2]: binds | binding result [3]: binds | binding result [4]: binds | binding result [5]: binds | binding result [10]: binds | binding result [11]: no binding

B12: motif-33 (dsDNA)
DNA 1: TACTGCCTGATTAGTGTAAATAATTGCCAGTCCTTG
DNA 2: CAAGGACTGGCAATTATTTACACTAATCAGGCAGTA
binding result [6]: binds | binding result [2]: no binding | binding result [3]: binds | binding result [4]: binds | binding result [5]: binds | binding result [12]: binds

B13: motif-32 (dsDNA)
DNA 1: TTGCATGTGCGGATATATATATGTGGAACCACCTTG
DNA 2: CAAGGTGGTTCCACATATATATATCCGCACATGCAA
binding result [2]: binds | binding result [4]: binds | binding result [5]: binds | binding result [12]: binds

B14: motif-30 Hox1+2 mutant (dsDNA)
DNA 1: GAAACAGGAGAACCAGGACTAATCC
DNA 2: GGATTAGTCCTGGTTCTCCTGTTTC
binding result [6]: no binding | binding result [2]: no binding | binding result [3]: no binding | binding result [4]: no binding

Source: article PMC5667929, “Combinatorial action of Grainyhead, Extradenticle and Notch in regulating Hox mediated apoptosis in Drosophila larval CNS”
